{"source": "patent US20040001848", "key": {"[1]": {"target": "bovine serum albumin (BSA) (UniProt P02769)", "sequence (P02769 25-607)": "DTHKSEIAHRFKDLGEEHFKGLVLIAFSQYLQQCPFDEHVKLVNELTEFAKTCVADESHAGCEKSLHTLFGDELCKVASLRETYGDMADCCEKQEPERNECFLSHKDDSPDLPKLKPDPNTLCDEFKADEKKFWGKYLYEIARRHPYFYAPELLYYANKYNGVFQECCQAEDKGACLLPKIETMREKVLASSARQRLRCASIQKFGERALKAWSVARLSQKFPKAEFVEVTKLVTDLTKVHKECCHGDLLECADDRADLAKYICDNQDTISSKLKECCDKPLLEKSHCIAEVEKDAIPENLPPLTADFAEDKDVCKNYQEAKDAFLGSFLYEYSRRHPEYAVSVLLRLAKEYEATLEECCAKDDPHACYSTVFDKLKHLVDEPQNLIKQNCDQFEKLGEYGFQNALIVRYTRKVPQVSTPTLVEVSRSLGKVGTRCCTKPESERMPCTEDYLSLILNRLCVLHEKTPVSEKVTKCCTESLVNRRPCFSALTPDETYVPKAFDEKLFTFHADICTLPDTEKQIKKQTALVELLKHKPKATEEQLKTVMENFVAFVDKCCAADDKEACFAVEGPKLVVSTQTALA"}, "ovalbumin": {"target": "ovalbumin (UniProt P01012)", "sequence (P01012 2-386)": "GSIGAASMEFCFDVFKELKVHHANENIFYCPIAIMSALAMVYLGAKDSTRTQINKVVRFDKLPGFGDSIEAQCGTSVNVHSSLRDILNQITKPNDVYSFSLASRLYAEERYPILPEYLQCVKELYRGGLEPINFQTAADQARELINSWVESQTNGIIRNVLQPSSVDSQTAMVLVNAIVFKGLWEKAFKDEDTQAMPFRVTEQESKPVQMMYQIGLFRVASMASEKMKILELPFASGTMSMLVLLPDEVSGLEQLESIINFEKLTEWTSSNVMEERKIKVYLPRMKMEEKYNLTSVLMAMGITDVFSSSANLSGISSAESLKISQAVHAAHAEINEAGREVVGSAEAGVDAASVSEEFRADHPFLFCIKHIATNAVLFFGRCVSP"}, "[2]": {"system": "myelin basic protein (MBP)"}, "β-casein": {"target": "T1, β-casein (UniProt P02666)", "T1 sequence": "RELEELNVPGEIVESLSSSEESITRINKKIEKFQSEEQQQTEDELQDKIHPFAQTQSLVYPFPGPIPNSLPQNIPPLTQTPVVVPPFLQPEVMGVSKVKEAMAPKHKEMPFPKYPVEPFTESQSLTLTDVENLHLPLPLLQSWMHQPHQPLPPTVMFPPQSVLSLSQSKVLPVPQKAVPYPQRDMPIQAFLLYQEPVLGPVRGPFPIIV"}, "[3]": {"system": "recombinant serum albumin"}}}
{"substance": "recombinant 6×-His-TGase fusion protein of Streptomyces mobaraensis ATCC 29032", "values": [{"measurement": "cross-linking of native protein", "setting": "histone H3 protein", "result": "there was no cross-linking"}, {"measurement": "cross-linking of native protein on SDS-PAGE", "setting": "histone H3 protein", "result": "complete and partial cross-linking was both observed for native histine H3 protein under the condition tested"}, {"measurement": "cross-linking of native protein", "setting": "[1]", "result": "there was no cross-linking"}, {"measurement": "cross-linking of β-amyloid (1-42) peptide on SDS-PAGE, 1 to 3 hours", "setting": "β-amyloid peptide (1-42)", "result": "can be cross-linked by the recombinant transglutaminase as shown as a smear of a mixture of cross-linked peptides"}, {"measurement": "cross-linking of native protein", "setting": "ovalbumin", "result": "there was no cross-linking"}, {"measurement": "cross-linking of BSA5 peptide on SDS-PAGE", "setting": "BSA5 peptide", "result": "increased amount of recombinant SM TGase corresponding to an increase in cross-linked (CL) BSA5 peptide"}, {"measurement": "cross-linking of native protein", "setting": "[2]", "result": "there was no cross-linking"}, {"measurement": "cross-linking of a mixture of β-casein and glucose oxidase on SDS-PAGE", "setting": "β-casein", "result": "both protein species can be cross-linked by the purified recombinant SM TGase"}, {"measurement": "cross-linking of β-casein on SDS-PAGE", "setting": "β-casein", "result": "the cross-linked (CL) β-casein migrated as a smear on the SDS-PAGE gel indicating a mixture of high molecular weight polymers of different length"}, {"measurement": "cross-linking of β-casein on SDS-PAGE, 0 mM DTT", "setting": "β-casein", "result": "had no cross-linking activity on β-casein"}, {"measurement": "cross-linking of β-casein on SDS-PAGE, about 2 mM DTT", "setting": "β-casein", "result": "β-casein run as a mixture of cross-linked polymer and monomer"}, {"measurement": "cross-linking of β-casein on SDS-PAGE, about 10 mM DTT", "setting": "β-casein", "result": "cross-linking of all detectable β-casein substrates in the reaction"}, {"measurement": "cross-linking of recombinant serum albumin on SDS-PAGE", "setting": "[3]", "result": "revealed a mixture of very high molecular weight polymers of different length"}]}
